According to patent publication US20250026849A1 (ARCELLX, published 2025):
Where a chain is given by its changes, count along the chain named.

T1: CD123 (Homo sapiens (Human), UniProt P26951 19-305, limits assumed)
T1 sequence: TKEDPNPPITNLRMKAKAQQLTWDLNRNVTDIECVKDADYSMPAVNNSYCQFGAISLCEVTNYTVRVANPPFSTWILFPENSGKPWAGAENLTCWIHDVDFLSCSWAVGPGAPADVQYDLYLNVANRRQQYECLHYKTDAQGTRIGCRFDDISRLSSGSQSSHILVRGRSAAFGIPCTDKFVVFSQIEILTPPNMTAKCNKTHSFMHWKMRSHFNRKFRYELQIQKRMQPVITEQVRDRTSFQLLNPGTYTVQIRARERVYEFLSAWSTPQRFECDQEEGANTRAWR

T2: extracellular domain of human CS1 protein (human, UniProt Q9NQ25 23-226)
T2 construct: Panning target; also called CS1 mature ECD
T2 sequence: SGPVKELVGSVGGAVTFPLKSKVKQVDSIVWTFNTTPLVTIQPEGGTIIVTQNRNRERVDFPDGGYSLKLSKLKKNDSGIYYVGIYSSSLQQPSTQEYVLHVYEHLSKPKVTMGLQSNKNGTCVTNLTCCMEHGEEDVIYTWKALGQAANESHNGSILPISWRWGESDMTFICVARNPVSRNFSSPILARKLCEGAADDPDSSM

B1: D domain SEQ ID NO: 800 (designed binder)
chain: MGSWHEFRWRLFAIWQRLHALGGSEAELAAFEKEIAAFESELQAYKGKGNPEVEWLRLDAALIRVMLQAYRHN
B2: D-domain SEQ ID NO: 340 (designed binder)
chain: MGSWIEFNMRVLAIEDRLWALGGSEAELAAFEKEIAAFESELQAYKGKGNPEVESLRYEACLDPWSSAAYRHN
B3: D-domain SEQ ID NO: 341 (designed binder)
chain: MGSWIEFHERLWAIEDRLWALGGSEAELAAFEKEIAAFESELQAYKGKGNPEVESLREMAASIRHGLQAYRHN
B4: D-domain SEQ ID NO: 342 (designed binder)
chain: B3 chain with I5F, H8Y, E15D, S55W, M59E, H65S, G66S
B5: D-domain SEQ ID NO: 343 (designed binder)
chain: MGSWFEFWDRLEAIDDRLFALGGSEAELAAFEKEIAAFESELQAYKGKGNPEVESLRYNAAEIRKELQAYRHN
B6: D-domain SEQ ID NO: 345 (designed binder)
chain: B5 chain with F5Y, D9I, E54D, S55I, Y58D, N59F, E62D, K65T
B7: D-domain SEQ ID NO: 347 (designed binder)
chain: B5 chain with F5E, E12F, F19W, S55T, Y58N, N59E, K65M, E66A
B8: D-domain SEQ ID NO: 344 (designed binder)
chain: B5 chain with F5H, D9S, E12D, S55Y, Y58G, N59A, E62D, K65A
B9: D-domain SEQ ID NO: 348 (designed binder)
chain: B5 chain with F5W, W8D, E12F, D16T, F19M, Y58E, N59W, E62T, K65M
B10: D-domain SEQ ID NO: 346 (designed binder)
chain: B5 chain with F5H, F19Y, S55F, Y58E, N59E, E62Y, K65E, E66L
B11: eb03 HER2 ADBD (SEQ ID NO: 804) (designed binder)
chain: MGSWAEFRWRLHAIWLQLGALGGSEAELAAFEKEIAAFESELQAYKGKGNPEVEWLRQDAAQIKYILQAYRHN
B12: cc09 CS1 ADBD (SEQ ID NO: 788) (designed binder)
chain: MGSWNEFKLELAFIKDWLEALGGSEAELANFEEAIAEFEAGLQGYKGKGNPEVEALRKEAAAIRDELQAYRHN
B13: cc12 CS1 ADBD (SEQ ID NO: 791) (designed binder)
chain: MGSWHHFKMHLAGIKLQLEALGGSEAELAEFEEWIADFEGALQDYKGKGNPEVEALRKEAAAIRDELQAYRHN
B14: cc01 CS1 ADBD (SEQ ID NO: 780) (designed binder)
chain: MGSWVEFEARLSAIYERLEALGGSEAELAAFEKEIAAFESELQAYKGKGNPEVEKLRRHAAGIRSNLQAYRHN
B15: cc08 CS1 ADBD (SEQ ID NO: 787) (designed binder)
chain: B14 chain with E8N, A9E, S12H, E16L, E19D, K55T, S65W, N66Q
B16: cc02 CS1 ADBD (SEQ ID NO: 781) (designed binder)
chain: B14 chain with E8F, A9V, S12D, Y15W, K55T, R58F, S65Q, N66K
B17: cc10 CS1 ADBD (SEQ ID NO: 789) (designed binder)
chain: B14 chain with V5M, S12E, Y15W, E16D, K55S, R58F, S65Q, N66H

Biological target: T3, HER2 (human, UniProt P04626 23-652)
T3 construct: also called ERBB2; CD340
Experiment: ELISA, format not described
Set-up: unit not given here

Binder	ELISA_avg
B1	10

Biological target: T1, CD123
Experiment: ELISA, format not described
Set-up: unit not given here

Binder	ELISA_avg
B2	3.2
B3	3.4
B4	6
B5	4.9
B6	10.4
B7	3.1
B8	3.8
B9	3.5
B10	10.6

Biological target: T4, extracellular domain of human HER2 protein (human, UniProt P04626 23-652)
T4 construct: Panning target; also called HER2 mature ECD; HER2 (ERBB2, CD340)
Experiment: phage display panning

Binder	binding result
B11	binds

Biological target: T2, extracellular domain of human CS1 …
Experiment: phage display panning

Binder	binding result
B12	binds
B13	binds
B14	binds
B15	binds
B16	binds
B17	binds
